Assay [1] addresses T1, human PCSK9 (PCSK9 antigen, SEQ ID NO. 53) (human, UniProt A8T644 31-152; Q8NBP7 153-692, Biotin-labelled on amines in the MSD-SET and sorting experiments; positions not given.).
T1 construct: Biotin-labelled in MSD-SET; also called PCSK9-WT; PCSK9 protein
The experiment in a line: flow cytometry, PCSK9 left on CHO-LDLR cells (anti-His-FITC) after premix with 10 nM antibody.

Assay [2] addresses T1, human PCSK9 (PCSK9 antigen, SEQ ID NO. …). The experiment in a line: flow cytometry, PCSK9 left on CHO-LDLR cells (anti-His-FITC) after premix with 100 nM antibody. A general note: In flow cytometry, cells or beads pass a laser one at a time.
Assay [3] shares this target. The experiment in a line: flow cytometry, PCSK9 left on CHO-LDLR cells (anti-His-FITC) after premix with 0.1 nM antibody.
Assay [4] has the same target. The assay can be described thus: BLI (ForteBio), IgG on AHQ sensor, 100 nM antigen. For orientation: BLI is a label-free optical method that tracks binding on a fibre tip over time.
The target in assay [5] is T2, murine PCSK-9 (murine, UniProt Q80W65 35-694).
T2 construct: also called mouse PCSK9
The assay can be described thus: BLI (ForteBio), IgG on AHQ sensor, 100 nM antigen.

Assay [6] concerns the target T1, human PCSK9 (PCSK9 antigen, SEQ ID NO. …). The experiment in a line: flow cytometry, PCSK9 left on CHO-LDLR cells (anti-His-FITC) after premix with 1000 nM antibody.
For assay [7] the target is unchanged. The experiment in a line: cell-based or functional assay.
Assay [8] has the same target. The assay can be described thus: cell-based or functional assay. The source holds these as a separate data set.
Assay [9] shares this target. The assay can be described thus: flow cytometry, PCSK9 left on CHO-LDLR cells (anti-His-FITC) after premix with 1 nM antibody.
For assay [10] the target is unchanged. The assay can be described thus: MSD-SET, Fab with biotin-PCSK9 in solution, IgG on plate, pH 6.0.
Assay [11] has the same target. The experiment in a line: MSD-SET, Fab with biotin-PCSK9 in solution, IgG on plate, pH 7.4.
Assay [12] concerns the target T2, murine PCSK-9. The assay is described as above.
Assay [13] has as its target T1, human PCSK9 (PCSK9 antigen, SEQ ID NO. …). The assay can be described thus: ForteBio method and MSD-SET assay, as the sentence says; end tied to ADI-10085 by Table 2.

B1: ADI-10089 (antibody, human IgG2, kappa, V domains shown)
VH: QLQLQESGPGLVKPSETLSLTCTVSGGSIGSSSYYWTWIRQPPGKGLEWIGSINYRGSTYYNPSLKSRVTISVDTSKNQFSLKLSSVTAADTAVYYCARENSGVVPAAGPNWFDPWGQGTLVTVSS
VL: EIVLTQSPATLSLSPGERATLSCRASQSVSSYLAWYQQKPGQAPRLLIYDASNRATGIPARFSGSGSGTDFTLTISSLEPEDFAVYYCQQRRNWFTFGGGTKVEIKR
notes: IgG
Turning to B1, the “Fluorescence Signal Value” in assay [1] turned out to be 5640. Also, in [2], the “Fluorescence Signal Value” was 5140. Also, in assay [3], the “Fluorescence Signal Value” is 6890. In addition, in assay [4], the Kd (commonly a measure of binding affinity in units of concentration) was 0.311 nM. Binding with murine PCSK-9 [5] was characterised by a dissociation constant (Kd) of 0.589 nM. Further, in assay [6], the “Fluorescence Signal Value” was 5330. The “fluorescence of BODIPY-LDL in HepG2 cells against no anti-PCSK9 antibody” value in [7] was approximately 2 times. In [8], the “BODIPY-LDL uptake by HepG2 cells, fluorescence, 4.2 nM, replicate 1” value is 0.38; the “BODIPY-LDL uptake by HepG2 cells, fluorescence, 4.2 nM, replicate 2” value is 0.399; the “BODIPY-LDL uptake by HepG2 cells, fluorescence, 16.8 nM, replicate 1” value turned out to be 0.712; the “BODIPY-LDL uptake by HepG2 cells, fluorescence, 16.8 nM, replicate 2” value stood at 0.706. In assay [8], the “BODIPY-LDL uptake by HepG2 cells, fluorescence, 66.7 nM, replicate 1” value worked out at 0.774 and the “BODIPY-LDL uptake by HepG2 cells, fluorescence, 66.7 nM, replicate 2” value was 0.741. In addition, the “Fluorescence Signal Value” in [9] was found to be 6500.

B2: ADI-10085 Fab (Fab, V domains shown)
VH: QLQLQESGPGLVKPSETLSLTCTVSGGSIVSSSYYWAWIRQPPGKGLEWIGSINYKGSTYYNPSLKSRVTISVDTSKNQFSLKLSSVTAADTAVYYCARENSGVVPAAGPNWFGPWGQGTLVTVSS
VL: EIVLTQSPATLSLSPGERATLSCRASQSVSSYLAWYQQKPGQAPRLLIYDASNRATGIPARFSGSGSGTDFTLTISSLEPEDFAVYYCQQRRNWFTFGGGTKVEIKR
Consider B2, for which the dissociation constant (Kd) in [10] worked out at 0.0059 nM; in assay [11] it was 0.0042 nM; with murine PCSK-9 [12], 0.041 nM; in [13], 0.004 nM.
